# From patent publication US20210238279A1 (Johns Hopkins, published 2021)
# Columns and labels:
# human ZnT8-His [1] = biological target: T1, human ZnT8-His (human, UniProt Q8IWU4-2 1-320, limits assumed); test: ELISA on ZnT8-His on Ni-NTA plate, native against unfolded with 2% SDS
# T1 construct: Over-expressed in HEK293 cells, solubilized with DDM and immobilized on Ni-NTA plates (native or unfolded with 2% SDS), or SDS-denatured on immunoblots; also called human ZnT8 with C-terminal poly-histidine tag; not shown: C-terminal poly-histidine tag
# T1 sequence (looked up): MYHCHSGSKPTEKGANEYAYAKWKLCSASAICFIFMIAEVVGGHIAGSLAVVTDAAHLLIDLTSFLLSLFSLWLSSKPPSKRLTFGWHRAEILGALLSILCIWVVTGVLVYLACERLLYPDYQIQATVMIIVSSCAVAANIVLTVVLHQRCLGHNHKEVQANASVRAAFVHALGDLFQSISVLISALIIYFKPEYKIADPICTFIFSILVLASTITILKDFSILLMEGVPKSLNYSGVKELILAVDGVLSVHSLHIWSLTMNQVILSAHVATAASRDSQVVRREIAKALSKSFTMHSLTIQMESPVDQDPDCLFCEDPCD
# Source text: FIG. 4A-4C. mAb binding stabilized ZnT8 folding (FIG. 4A) mAb binding to folded or denatured ZnT8. ZnT8-His in detergent micelles was immobilized to a Ni-NTA plate in replication w/o SDS denaturation. ELISAs against denatured (triangle) and non-denatured ZnT8 (circle) were compared for mAb20 and mAb39 as indicated. CTDA and MSA were used as a positive and negative control, respectively. Error bars are standard deviations. (FIG. 4B) mAb binding to folded ZnT8-GFP in detergent micelles. mAb20 or mAb39 was mixed with ZnT8-GFP and then the binding mixture was analyzed by size-exclusion HPLC with GFP-fluorescence detection. […] (FIG. 4C) Protection of ZnT8 unfolding. Aliquots of ZnT8 in detergent micelles were incubated with Fab20 (red), Fab39 (magenta), or Fab20+Fab39 (brown). […] After a designated time of heat denaturation as indicated, protein aggregates were removed by ultracentrifugation, and the amount of remaining ZnT8 in the supernatant was detected by mAb20 immunoblotting (upper panel). […]
# Folding dependence. To compare the difference in mAb bindings to native and denatured ZnT8, we used 2% SDS to unfold immobilized ZnT8-His on a Ni-NTA plate, and then compared denatured ELISA readouts with non-denatured replicates. The native readout of mAb20 was about two-fold higher than the denatured readout (FIG. 4A), indicating a moderate selectivity for folded conformation over unfolded ZnT8. […]
# human ZnT8-His [2] = biological target: T1, human ZnT8-His; test: ELISA, ZnT8-His on Ni-NTA plate, HRP-conjugated secondary antibody; curve taken as human by paragraph 166
# Source text: FIG. 7A-7D. mAb binding specificities (FIG. 7A) mAb binding to ZnT8-His immobilized to Ni-NTA plate. Bound mAb20 (red) or mAb39 (magenta) was detected by an HRP-conjugated secondary antibody. Solid lines are least-squares fits of binding datapoints to a one-component binding process. Error bars are standard errors (n=8). (FIG. 7B) SDS-denatured mouse ZnT8-His (labeled as M) and human ZnT8-His (labeled as H) on immunoblots were detected by mAb20 or mAb39 as indicated. […] (FIG. 7C) Detection of endogenous human ZnT8 in EndoC-βH cells by mAb20 or […] immunoblotting. An equal amount of EndoC-βH lysate (5 μg total protein) was loaded to each lane. (FIG. 7D) Immunoblotting of HEK lysates with or with over-expression of a ZnT homolog as indicated. An approximately equal amount of total lysate protein (5 μg) was located to each lane, probed by either mAb20, mAb39, or anti-FALG antibody as indicated. FIG. 8. HTRF response to human ZnT8, mouse ZnT8 and human ZnT3.
# Binding specificities. […] Of note, the epitope-masking effect of ZnT8 immobilization weakened the apparent binding affinities of both mAbs as compared to the affinities determined by flow-cytometry, and such a weakening effect was more pronounced for mAb39, probably due to a closer proximity of the mAb39 epitope to the C-terminal His-tag. Next, we compared the immunoreactivities of mAbs to denatured ZnT8.
binder,measurement,setting,value
"mAb20 (antibody, V domains shown, Mouse hybridoma mAb purified on protein A/G; In some assays it was labelled with Alexa Fluor 488 or terbium cryptate; also called monoclonal antibody mAb20; anti-ZnT8 mAb20) VH: QIQLVQSGPELKKPGETVKISCKASGYIFTNYPMHWVKQAPGKGLKWMGWINTYSGVPTHADDFKGRFAFSLETSANSAFLQINNLKNEDTATYFCTRSRITPTGGYAMDYWGQGTSVTVSS VL: DVVMTQTPLSLPVSLGDQASISCRSSQSLVHSNGNTYLHWYLQKPGQSPNLLISKVSNRFSGVPERFSGSGSGTDFTLKISRVEAEDLGVYFCSQNTHVPWTFGGGTKLEIKR",ratio of native to SDS-denatured ELISA readout,human ZnT8-His [1],~2 fold
same,EC50 (read off the curve),human ZnT8-His [2],~3 nM
